According to patent US20200384083A1 (SINGAPORE HEALTH SERVICES PTE, published 2020):

Legend:
mouse IL-11Rα (Il11ra1) = molecular target: T1, mouse IL-11Rα (Il11ra1) (mouse, UniProt Q64385 24-372, limits assumed); experiment: BLI, Octet (ForteBio)
T1 construct: also called mouse Il11ra1
T1 sequence (looked up): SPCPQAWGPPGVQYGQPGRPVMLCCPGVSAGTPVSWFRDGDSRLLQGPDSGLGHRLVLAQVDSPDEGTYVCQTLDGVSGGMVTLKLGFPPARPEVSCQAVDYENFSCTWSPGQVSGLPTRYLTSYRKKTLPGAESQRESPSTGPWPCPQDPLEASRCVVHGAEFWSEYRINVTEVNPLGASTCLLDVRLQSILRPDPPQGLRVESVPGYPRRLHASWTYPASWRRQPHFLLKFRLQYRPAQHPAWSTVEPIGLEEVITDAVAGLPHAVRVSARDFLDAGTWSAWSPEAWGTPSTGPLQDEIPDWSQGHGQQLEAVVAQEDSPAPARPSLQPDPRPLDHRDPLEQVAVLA

[1] = molecular target: T2, human IL11RA (analyte in the Biacore assay) (human, UniProt Q14626 23-370, limits assumed); experiment: SPR, Biacore T200; X209 captured on an anti-mouse chip, human IL11RA as analyte (1.56 nM to 100 nM), 1:1 Langmuir fit
T2 construct: also called IL-11Rα
T2 sequence: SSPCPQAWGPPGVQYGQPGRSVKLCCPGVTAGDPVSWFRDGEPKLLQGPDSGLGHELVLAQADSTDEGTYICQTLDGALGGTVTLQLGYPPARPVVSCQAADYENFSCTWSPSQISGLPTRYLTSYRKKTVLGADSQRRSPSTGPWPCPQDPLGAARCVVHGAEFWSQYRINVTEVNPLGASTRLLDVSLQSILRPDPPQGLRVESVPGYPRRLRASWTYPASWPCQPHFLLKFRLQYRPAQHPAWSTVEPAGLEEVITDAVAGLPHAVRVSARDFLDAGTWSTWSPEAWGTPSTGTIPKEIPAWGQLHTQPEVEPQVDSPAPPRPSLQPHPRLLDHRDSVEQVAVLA
Procedure: (§1) Binding of X209 to human IL11RA was measured on Biacore T200 (GE Healthcare). X209 was immobilized onto an anti-mouse capture chip. Interaction assays were performed with HEPES-buffered saline pH 7.4 containing 0.005% P20 and 0.5% BSA. A concentration range (1.56 nM to 100 nM) of the analyte (human IL11 RA) was injected over X209 and reference surfaces at a flow rate of 40 μl min⁻¹. Binding to mouse 1111ra1 was confirmed on Octet system (ForteBio) using a similar strategy. All sensograms were aligned and double-referenced⁴. Affinity and kinetic constants were determined by fitting the corrected sensorgrams with 1:1 Langmuir model. The equilibrium binding constant KD was determined by the ratio of kd/kₐ.

[2] = molecular target: T2, human IL11RA (analyte in the Biacore …); experiment: SPR (Biacore T200): X209 captured on an anti-mouse capture chip, human IL11RA injected as analyte at 1.56 nM to 100 nM, 1:1 Langmuir fit
Procedure: as §1

binding result (mouse IL-11Rα (Il11ra1)): binds
Kd [1]: 6 nM
Kd [2]: 6.01 nM
koff [2]: 0.000757 s⁻¹
kon [2]: 126000 M⁻¹ s⁻¹
B1: mouse anti-mouse IL-11Rα IgG X209 (antibody, V domains shown)
VH: QVQLQQPGAELVRPGSSVKLSCKASGYTFTNYWMHWLKQRPVQGLEWIGNIGPSDSKTHYNQKFKDKATLTVDKSSSTAYMQLNSLTSEDSAVYYCARGDYVLFTYWGQGTLVTVSA
VL: DIVLTQSPATLSLSPGERATLSCRASQSISNNLHWYQQKSHEAPRLLIKYASQSISGIPARFSGSGSGTDFTLSFSSLETEDFAVYFCQQSYSWPLTFGQGTKLEIK
notes: also called Enx209; neutralizing anti-IL11RA
